Source: paper PMC11574045, “A cofactor-induced repressive type of transcription factor condensation can be induced by synthetic peptides to suppress tumorigenesis” (The EMBO Journal, 2024)

B1: FOXN2 (protein, UniProt P32314 1-431, looked up)
Forkhead box protein N2: MGPVIGMTPDKRAETPGAEKIAGLSQIYKMGSLPEAVDAARPKATLVDSESADDELTNLNWLHESTNLLTNFSLGSEGLPIVSPLYDIEGDDVPSFGPACYQNPEKKSATSKPPYSFSLLIYMAIEHSPNKCLPVKEIYSWILDHFPYFATAPTGWKNSVRHNLSLNKCFQKVERSHGKVNGKGSLWCVDPEYKPNLIQALKKQPFSSASSQNGSLSPHYLSSVIKQNQVRNLKESDIDAAAAMMLLNTSIEQGILECEKPLPLKTALQKKRSYGNAFHHPSAVRLQESDSLATSIDPKEDHNYSASSMAAQRCASRSSVSSLSSVDEVYEFIPKNSHVGSDGSEGFHSEEDTDVDYEDDPLGDSGYASQPCAKISEKGQSGKKMRKQTCQEIDEELKEAAGSLLHLAGIRTCLGSLISTAKTQNQKQRKK
B2: FOXO3 (protein, UniProt O43524 1-673, looked up)
Forkhead box protein O3: MAEAPASPAPLSPLEVELDPEFEPQSRPRSCTWPLQRPELQASPAKPSGETAADSMIPEEEDDEDDEDGGGRAGSAMAIGGGGGSGTLGSGLLLEDSARVLAPGGQDPGSGPATAAGGLSGGTQALLQPQQPLPPPQPGAAGGSGQPRKCSSRRNAWGNLSYADLITRAIESSPDKRLTLSQIYEWMVRCVPYFKDKGDSNSSAGWKNSIRHNLSLHSRFMRVQNEGTGKSSWWIINPDGGKSGKAPRRRAVSMDNSNKYTKSRGRAAKKKAALQTAPESADDSPSQLSKWPGSPTSRSSDELDAWTDFRSRTNSNASTVSGRLSPIMASTELDEVQDDDAPLSPMLYSSSASLSPSVSKPCTVELPRLTDMAGTMNLNDGLTENLMDDLLDNITLPPSQPSPTGGLMQRSSSFPYTTKGSGLGSPTSSFNSTVFGPSSLNSLRQSPMQTIQENKPATFSSMSHYGNQTLQDLLTSDSLSHSDVMMTQSDPLMSQASTAVSAQNSRRNVMLRNDPMMSFAAQPNQGSLVNQNLLHHQHQTQGALGGSRALSNSVSNMGLSESSSLGSAKHQQQSPVSQSMQTLSDSLSGSSLYSTSANLPVMGHEKFPSDLDLDMFNGSLECDMESIIRSELMDADGLDFNFDSLISTQNVVGLNVGNFTGAKQASSQSWVPG
B3: FOXP4 (protein, UniProt Q8IVH2 1-680, looked up)
Forkhead box protein P4: MMVESASETIRSAPSGQNGVGSLSGQADGSSGGATGTTASGTGREVTTGADSNGEMSPAELLHFQQQQALQVARQFLLQQASGLSSPGNNDSKQSASAVQVPVSVAMMSPQMLTPQQMQQILSPPQLQALLQQQQALMLQQLQEYYKKQQEQLHLQLLTQQQAGKPQPKEALGNKQLAFQQQLLQMQQLQQQHLLNLQRQGLVSLQPNQASGPLQTLPQAAVCPTDLPQLWKGEGAPGQPAEDSVKQEGLDLTGTAATATSFAAPPKVSPPLSHHTLPNGQPTVLTSRRDSSSHEETPGSHPLYGHGECKWPGCETLCEDLGQFIKHLNTEHALDDRSTAQCRVQMQVVQQLEIQLAKESERLQAMMAHLHMRPSEPKPFSQPLNPVPGSSSFSKVTVSAADSFPDGLVHPPTSAAAPVTPLRPPGLGSASLHGGGPARRRSSDKFCSPISSELAQNHEFYKNADVRPPFTYASLIRQAILETPDRQLTLNEIYNWFTRMFAYFRRNTATWKNAVRHNLSLHKCFVRVENVKGAVWTVDEREYQKRRPPKMTGSPTLVKNMISGLSYGALNASYQAALAESSFPLLNSPGMLNPGSASSLLPLSHDDVGAPVEPLPSNGSSSPPRLSPPQYSHQVQVKEEPAEAEEDRQPGPPLGAPNPSASGPPEDRDLEEELPGEELS
B4: FOXR1 (protein, UniProt Q6PIV2 1-292, looked up)
Forkhead box protein R1: MGNELFLAFTTSHLPLAEQKLARYKLRIVKPPKLPLEKKPNPDKDGPDYEPNLWMWVNPNIVYPPGKLEVSGRRKREDLTSTLPSSQPPQKEEDASCSEAAGVESLSQSSSKRSPPRKRFAFSPSTWELTEEEEAEDQEDSSSMALPSPHKRAPLQSRRLRQASSQAGRLWSRPPLNYFHLIALALRNSSPCGLNVQQIYSFTRKHFPFFRTAPEGWKNTVRHNLCFRDSFEKVPVSMQGGASTRPRSCLWKLTEEGHRRFAEEARALASTRLESIQQCMSQPDVMPFLFDL
B5: FOXR2 (protein, UniProt Q6PJQ5 1-311, looked up)
Forkhead box protein R2: MDLKLKDCEFWYSLHGQVPGLLDWDMRNELFLPCTTDQCSLAEQILAKYRVGVMKPPEMPQKRRPSPDGDGPPCEPNLWMWVDPNILCPLGSQEAPKPSGKEDLTNISPFPQPPQKDEGSNCSEDKVVESLPSSSSEQSPLQKQGIHSPSDFELTEEEAEEPDDNSLQSPEMKCYQSQKLWQINNQEKSWQRPPLNCSHLIALALRNNPHCGLSVQEIYNFTRQHFPFFWTAPDGWKSTIHYNLCFLDSFEKVPDSLKDEDNARPRSCLWKLTKEGHRRFWEETRVLAFAQRERIQECMSQPELLTSLFDL
B6: FOXS1 (protein, UniProt O43638 1-330, looked up)
Forkhead box protein S1: MQQQPLPGPGAPTTEPTKPPYSYIALIAMAIQSSPGQRATLSGIYRYIMGRFAFYRHNRPGWQNSIRHNLSLNECFVKVPRDDRKPGKGSYWTLDPDCHDMFEHGSFLRRRRRFTRQTGAEGTRGPAKARRGPLRATSQDPGVPNATTGRQCSFPPELPDPKGLSFGGLVGAMPASMCPATTDGRPRPPMEPKEISTPKPACPGELPVATSSSSCPAFGFPAGFSEAESFNKAPTPVLSPESGIGSSYQCRLQALNFCMGADPGLEHLLASAAPSPAPPTPPGSLRAPLPLPTDHKEPWVAGGFPVQGGSGYPLGLTPCLYRTPGMFFFE
B7: GABPB1 (protein, UniProt Q06547 2-395, looked up)
GA-binding protein subunit …: SLVDLGKKLLEAARAGQDDEVRILMANGAPFTTDWLGTSPLHLAAQYGHYSTTEVLLRAGVSRDARTKVDRTPLHMAASEGHASIVEVLLKHGADVNAKDMLKMTALHWATEHNHQEVVELLIKYGADVHTQSKFCKTAFDISIDNGNEDLAEILQIAMQNQINTNPESPDTVTIHAATPQFIIGPGGVVNLTGLVSSENSSKATDETGVSAVQFGNSSTSVLATLAALAEASAPLSNSSETPVVATEEVVTAESVDGAIQQVVSSGGQQVITIVTDGIQLGNLHSIPTSGIGQPIIVTMPDGQQVLTVPATDIAEETVISEEPPAKRQCIEIIENRVESAEIEEREALQKQLDEANREAQKYRQQLLKKEQEAEAYRQKLEAMTRLQTNKEAV
B8: AIRE (protein, UniProt O43918 1-545, looked up)
Autoimmune regulator: MATDAALRRLLRLHRTEIAVAVDSAFPLLHALADHDVVPEDKFQETLHLKEKEGCPQAFHALLSWLLTQDSTAILDFWRVLFKDYNLERYGRLQPILDSFPKDVDLSQPRKGRKPPAVPKALVPPPRLPTKRKASEEARAAAPAALTPRGTASPGSQLKAKPPKKPESSAEQQRLPLGNGIQTMSASVQRAVAMSSGDVPGARGAVEGILIQQVFESGGSKKCIQVGGEFYTPSKFEDSGSGKNKARSSSGPKPLVRAKGAQGAAPGGGEARLGQQGSVPAPLALPSDPQLHQKNEDECAVCRDGGELICCDGCPRAFHLACLSPPLREIPSGTWRCSSCLQATVQEVQPRAEEPRPQEPPVETPLPPGLRSAGEEVRGPPGEPLAGMDTTLVYKHLPAPPSAAPLPGLDSSALHPLLCVGPEGQQNLAPGARCGVCGDGTDVLRCTHCAAAFHWRCHFPAGTSRPGTGLRCRSCSGDVTPAPVEGVLAPSPARLAPGPAKDDTASHEPALHRDDLESLLSEHTFDGILQWAIQSMARPAAPFPS

What follows are molecules tested on HEK293FT cells transfected with TF library (assay: Screening of TF condensates based on fluorescent puncta). Settings: Figure 1B numerical data; TF library screen, one value per transcriptional factor.
Assay type: cell-based
Outline: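 HEK293FT cells were reverse-transfected with Flag- or GAL4-tagged TF plasmids (1.6 μg/ml, PEI). After 60 h, cells were cultured 12 h with or without glucose, then fixed and immunostained with anti-Flag or anti-GAL4 and Alexa 488 secondaries. Fluorescent puncta were imaged over fifty random fields per well by high-content imaging.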
B1 was tested, and the “Z score of condensed fraction” value was -0.402. For B2, the “Z score of condensed fraction” value was -0.5303. B3 was tested, and the “Z score of condensed fraction” value was 0.7085. With B4 the “Z score of condensed fraction” value was -0.3141. For B5, the “Z score of condensed fraction” value was -0.6086. B6 was tested, and the “Z score of condensed fraction” value was 2.025. For B7, the “Z score of condensed fraction” value was -0.05729. In the case of B8, the “Z score of condensed fraction” value is reported as 1.2609.
